The experiment deals with HeV G envelope glycoprotein (on effector cells expressing HeV F and G, or on infectious HeV) (Hendra virus) (UniProt O89343). Nature of the experiment: cell-based or functional assay.
Sequence of HeV G envelope glycoprotein (on effector cells expressing HeV F and G, or on infectious HeV) (Hendra virus) (O89343 whole entry): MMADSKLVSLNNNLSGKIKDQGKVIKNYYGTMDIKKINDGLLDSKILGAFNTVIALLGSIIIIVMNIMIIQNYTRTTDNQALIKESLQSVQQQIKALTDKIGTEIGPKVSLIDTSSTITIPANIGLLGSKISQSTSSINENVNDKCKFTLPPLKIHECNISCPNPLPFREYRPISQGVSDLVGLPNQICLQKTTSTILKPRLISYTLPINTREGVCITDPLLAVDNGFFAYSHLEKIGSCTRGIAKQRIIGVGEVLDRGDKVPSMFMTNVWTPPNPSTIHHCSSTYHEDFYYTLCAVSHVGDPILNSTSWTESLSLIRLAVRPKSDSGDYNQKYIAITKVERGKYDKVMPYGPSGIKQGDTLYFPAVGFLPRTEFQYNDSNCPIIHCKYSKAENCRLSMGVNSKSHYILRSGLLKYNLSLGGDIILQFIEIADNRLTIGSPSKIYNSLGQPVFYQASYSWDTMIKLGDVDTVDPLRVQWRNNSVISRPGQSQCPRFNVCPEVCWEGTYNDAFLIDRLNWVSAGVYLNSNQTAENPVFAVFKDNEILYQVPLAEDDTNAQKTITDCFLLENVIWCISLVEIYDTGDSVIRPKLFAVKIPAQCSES

Consider Fab X5, for which the syncytia per complete photograph view, control antibody (17 without antibody) (syncytia per view) amounted to 20.
